These results are taken from publication PMC5622069.

The target in experiment [1] is MnxG (Bacillus sp. PL-12). Description: native MS; surface-induced dissociation (SID) of the isolated 29+ Mnx complex at a low collision voltage of 40 V, ion mobility-MS; hexamer assigned after removal of most bound copper with EDTA.
Experiment [2] deals with MnxF (Bacillus sp. PL-12). The experiment is described as above.

In the case of MnxF (natural protein), the stoichiometry N (MnxF per MnxG) in experiment [1] came to 3.
For MnxE (natural protein), the stoichiometry N (MnxE per MnxG) in experiment [1] is 3. In experiment [2], this substance had a stoichiometry N (MnxE per MnxF (3:3)) of 1.
For the substance MnxE3F3 hexamer (complex), the stoichiometry N (MnxG per hexamer) in experiment [1] is 1.
